Here are results for 2 molecules from patent publication US20110033389A1 (published 2011).

What all share (assay): cell-based or functional assay
The target of assay [1] is T1, glycoprotein D of Herpes simplex virus, on HSV-1 virus (Herpes simplex virus (HSV-1 virus in …, UniProt A1Z0Q5 26-394)).
The target of assay [2] is T1, glycoprotein D of Herpes simplex virus, …. The source holds these as a separate data set.
Assay [3] shares this target. The source holds these as a separate data set.

B1: AC8FabTAT (Fab, V domains shown)
VH: QVQLVQSGAEVKKPGSSVKVSCKASGGSFSSYAINWVRQAPGQGLEWMGGLMPIFGTTNYAQKFQDRLTITADVSTSTAYMQLSGLTYEDTAMYYCARVAYMLEPTVTAGGLDVWGQGTTVTVAS
VL: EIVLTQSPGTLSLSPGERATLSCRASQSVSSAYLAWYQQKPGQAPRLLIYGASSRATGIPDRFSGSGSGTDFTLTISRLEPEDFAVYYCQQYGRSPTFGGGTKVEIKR
As to B1, in assay [1], the “ED50 against HSV-1 infection; virus prevention assay (cells pre-treated with antibody, washed, then HSV-1)” value came out at 27 µg/mL. In assay [2], the “Plaque Reduction Rate Percentage (Average plaque number per plate) at 0.2 µg/ml; virus prevention assay (cells pre-treated with antibody, washed, then HSV-1)” value came to 0%; the “Plaque Reduction Rate Percentage (Average plaque number per plate) at 0.6 µg/ml; virus prevention assay (cells pre-treated with antibody, washed, then HSV-1)” value turned out to be 0%; the “Plaque Reduction Rate Percentage (Average plaque number per plate) at 1.9 µg/ml; virus prevention assay (cells pre-treated with antibody, washed, then HSV-1)” value came to 0%; the “Plaque Reduction Rate Percentage (Average plaque number per plate) at 5.6 µg/ml; virus prevention assay (cells pre-treated with antibody, washed, then HSV-1)” value was determined as 13%. Besides, in assay [2], the “Plaque Reduction Rate Percentage (Average plaque number per plate) at 16.7 µg/ml; virus prevention assay (cells pre-treated with antibody, washed, then HSV-1)” value was determined as 37% and the “Plaque Reduction Rate Percentage (Average plaque number per plate) at 50 µg/ml; virus prevention assay (cells pre-treated with antibody, washed, then HSV-1)” value stood at 68%. In assay [3], the “Plaque Reduction Rate Percentage (Average plaque number per plate) at 0.012 µg/ml; HSV-1 neutralization in solution” value was found to be 0%, the “Plaque Reduction Rate Percentage (Average plaque number per plate) at 0.037 µg/ml; HSV-1 neutralization in solution” value was found to be 14%, the “Plaque Reduction Rate Percentage (Average plaque number per plate) at 0.11 µg/ml; HSV-1 neutralization in solution” value turned out to be 33% and the “Plaque Reduction Rate Percentage (Average plaque number per plate) at 0.33 µg/ml; HSV-1 neutralization in solution” value turned out to be 77%. For the same molecule, in assay [3], the “Plaque Reduction Rate Percentage (Average plaque number per plate) at 1 µg/ml; HSV-1 neutralization in solution” value stood at 100% and the “Plaque Reduction Rate Percentage (Average plaque number per plate) at 3 µg/ml; HSV-1 neutralization in solution” value came out at 100%.

B2: AC8 Fab (Fab, V domains shown)
VH: QVQLVQSGAEVKKPGSSVKVSCKASGGSFSSYAINWVRQAPGQGLEWMGGLMPIFGTTNYAQKFQDRLTITADVSTSTAYMQLSGLTYEDTAMYYCARVAYMLEPTVTAGGLDVWGQGTTVTVAS
VL: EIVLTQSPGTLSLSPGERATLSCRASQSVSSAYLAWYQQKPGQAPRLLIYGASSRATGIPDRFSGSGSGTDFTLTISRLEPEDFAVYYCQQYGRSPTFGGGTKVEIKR
On to B2, for which the “ED50; plaque reduction assay, HSV-1 neutralization in solution” value in assay [1] is roughly 0.2 µg/mL.
